Laboratory results published in patent US20260035728A1 (Chugai, published 2026).
Changes are numbered by the printed parent chain. Names may count otherwise. Values belong to the binder of their own block, whether it stands above or below them.

What was measured:
Experiment in all cases: co-expression of both H chains with the common L chain; cation exchange chromatography (IEX), ratio of peak areas of A-Homo, BiAb and B-Homo; IgG4-type
[1] = molecular target: humanized B26 antibody H chain, IgG4-type w1 (D399K, E357K)
[2] = molecular target: humanized B26 antibody H chain, IgG4-type w3C (E357K, E356K, S354C)
[3] = molecular target: humanized B26 antibody H chain, IgG4-type w2 (D399K, E356K)
[4] = molecular target: humanized B26 antibody H chain, IgG4-type w3 (E357K, E356K)
[5] = molecular target: humanized B26 antibody H chain, IgG4-type w3C2 (E357K, E356K, Y349C)
[6] = molecular target: humanized B26 antibody H chain, IgG4-type s1C (D399K, S354C)

B3: humanized A69 antibody H chain, IgG4-type w2 (R409D, K439E) (other)
heavy: EVQLVQSGAEVVKPGSSVKVSCTASGYTFSDYYMHWVRQAPGEGLEWMGYINPSSGYTKYNRKFRDRVTITADKSTSTAYMELSSLRSEDTAVYYCARGGLGYYLDYWGEGTTVTVSSASTKGPSVFPLAPCSRSTSESTAALGCLVKDYFPEPVTVSWNSGALTSGVHTFPAVLQSSGLYSLSSVVTVPSSSLGTKTYTCNVDHKPSNTKVDKRVESKYGPPCPPCPAPEFLGGPSVFLFPPKPKDTLMISRTPEVTCVVVDVSQEDPEVQFNWYVDGVEVHNAKTKPREEQFNSTYRVVSVLTVLHQDWLNGKEYKCKVSNKGLPSSIEKTISKAKGQPREPQVYTLPPSQEEMTKNQVSLTCLVKGFYPSDIAVEWESNGQPENNYKTTPPVLDSDGSFFLYSDLTVDKSRWQEGNVFSCSVMHEALHNHYTQESLSLSLGK
BiAb formation efficiency (%) [3]: ≥ 90%

B4: humanized A69 antibody H chain, IgG4-type w3 (K370E, K439E) (other)
heavy: B3 heavy with K368E, D407R
BiAb formation efficiency (%) [4]: ≥ 90%

B5: humanized A69 antibody H chain, IgG4-type w3C2 (K370E, K439E, S354C) (other)
heavy: B3 heavy with S352C, K368E, D407R
BiAb formation efficiency (%) [5]: ≥ 90%

The remaining lines, values ahead:

BiAb formation efficiency (%) [1]: ≥ 90%
B1: humanized A69 antibody H chain, IgG4-type w1 (R409D, K370E) (other)
heavy: B3 heavy with K368E, E437K

BiAb formation efficiency (%) [2]: ≥ 90%
B2: humanized A69 antibody H chain, IgG4-type w3C (K370E, K439E, Y349C) (other)
heavy: B3 heavy with Y347C, K368E, D407R

BiAb formation efficiency (%) [6]: ≥ 90%
B6: humanized A69 antibody H chain, IgG4-type s1C (R409D, Y349C) (other)
heavy: B3 heavy with Y347C, E437K
